Literature values, collected in article PMC8416071.

Biological target: Spike protein (SARS-CoV) (UniProt P59594)
Experiment: ITC

For Griffithsin (from UniProt P84801), the Kd is given as 24.9 nM.
